Substrate in the series: O=C(O)[C@@H]1CCCN1
The series can be described thus: enzyme kinetics, Km. The series is classed as biochemical, Homo sapiens.

B1: human EPRS (bifunctional glutamyl-prolyl-tRNA synthetase) (Homo sapiens) (protein)
chain: MATLSLTVNSGDPPLGALLAVEHVKDDVSISVEEGKENILHVSENVIFTDVNSILRYLARVATTAGLYGSNLMEHTEIDHWLEFSATKLSSCDSFTSTINELNHCLSLRTYLVGNSLSLADLCVWATLKGNAAWQEQLKQKKAPVHVKRWFGFLEAQQAFQSVGTKWDVSTTKARVAPEKKQDVGKFVELPGAEMGKVTVRFPPEASGYLHIGHAKAALLNQHYQVNFKGKLIMRFDDTNPEKEKEDFEKVILEDVAMLHIKPDQFTYTSDHFETIMKYAEKLIQEGKAYVDDTPAEQMKAEREQRIDSKHRKNPIEKNLQMWEEMKKGSQFGQSCCLRAKIDMSSNNGCMRDPTLYRCKIQPHPRTGNKYNVYPTYDFACPIVDSIEGVTHALRTTEYHDRDEQFYWIIEALGIRKPYIWEYSRLNLNNTVLSKRKLTWFVNEGLVDGWDDPRFPTVRGVLRRGMTVEGLKQFIAAQGSSRSVVNMEWDKIWAFNKKVIDPVAPRYVALLKKEVIPVNVPEAQEEMKEVAKHPKNPEVGLKPVWYSPKVFIEGADAETFSEGEMVTFINWGNLNITKIHKNADGKIISLDAKLNLENKDYKKTTKVTWLAETTHALPIPVICVTYEHLITKPVLGKDEDFKQYVNKNSKHEELMLGDPCLKDLKKGDIIQLQRRGFFICDQPYEPVSPYSCKEAPCVLIYIPDGHTKEMPTSGSKEKTKVEATKNETSAPFKERPTPSLNNNCTTSEDSLVLYNRVAVQGDVVRELKAKKAPKEDVDAAVKQLLSLKAEYKEKTGQEYKPGNPPAEIGQNISSNSSASILESKSLYDEVAAQGEVVRKLKAEKSPKAKINEAVECLLSLKAQYKEKTGKEYIPGQPPLSQSSDSSPTRNSEPAGLETPEAKVLFDKVASQGEVVRKLKTEKAPKDQVDIAVQELLQLKAQYKSLIGVEYKPVSATGAEDKDKKKKEKENKSEKQNKPQKQNDGQRKDPSKNQGGGLSSSGAGEGQGPKKQTRLGLEAKKEENLADWYSQVITKSEMIEYHDISGCYILRPWAYAIWEAIKDFFDAEIKKLGVENCYFPMFVSQSALEKEKTHVADFAPEVAWVTRSGKTELAEPIAIRPTSETVMYPAYAKWVQSHRDLPIKLNQWCNVVRWEFKHPQPFLRTREFLWQEGHSAFATMEEAAEEVLQILDLYAQVYEELLAIPVVKGRKTEKEKFAGGDYTTTIEAFISASGRAIQGGTSHHLGQNFSKMFEIVFEDPKIPGEKQFAYQNSWGLTTRTIGVMTMVHGDNMGLVLPPRVACVQVVIIPCGITNALSEEDKEALIAKCNDYRRRLLSVNIRVRADLRDNYSPGWKFNHWELKGVPIRLEVGPRDMKSCQFVAVRRDTGEKLTVAENEAETKLQAILEDIQVTLFTRASEDLKTHMVVANTMEDFQKILDSGKIVQIPFCGEIDCEDWIKKTTARDQDLEPGAPSMGAKSLCIPFKPLCELQPGAKCVCGKNPAKYYTLFGRSY
For B1, the Km came out at 135.4 µM.

For orientation: Km means the substrate concentration at which the rate is half of its maximum.

The values are drawn from article PMC4675670.
